Measurements taken from paper PMC3314626, “Crystal Structures of the Tetratricopeptide Repeat Domains of Kinesin Light Chains: Insight into Cargo Recognition Mechanisms” (PLoS ONE, 2012).

Experiments:
Test in all cases: ITC; peptide (1-3 mM) in the syringe injected into 60-130 uM KLC1-TPR or KLC2-TPR (or mutant) in the cell; 25 C; 20 mM Bis-Tris pH 6.5, 500 mM NaCl, 0.5 mM TCEP; one-site binding model
[1] = target: KLC1 TPR domain (kinesin light chain 1 tetratricopeptide repeat domain) (human) (UniProt Q07866)
[2] = target: KLC1-TPR N301A mutant (human) (UniProt Q07866)
[3] = target: KLC1-TPR N343S mutant (human) (UniProt Q07866)

Kd [1]	dH [1]	stoichiometry N [1]	Kd [2]	dH [2]	stoichiometry N [2]	Kd [3]	dH [3]	stoichiometry N [3]	Binder
50.3 µM	-2.5 kcal/mol	1.85	179 µM	-1.2 kcal/mol	1.02	44.3 µM	-1.7 kcal/mol	2.13	Ac-EMDWDDSALT-OH [ALC1 peptide (alcadein-1)]
9.4 µM	-1.52 kcal/mol	1.02	–	–	–	–	–	–	Ac-EYTCPTEDIYLE-OH [JIP1 peptide (C-terminal residues of JNK-interacting protein 1)]
